Paper PMC8754651, “Three human RNA polymerases interact with TFIIH via a common RPB6 subunit” (Nucleic Acids Research, 2021)

B1: human TFIIH p62 PH domain (PH-D) (residues 1–108) (domain or fragment)
chain: MATSSEEVLLIVKKVRQKKQDGALYLMAERIAWAPEGKDRFTISHMYADIKCQKISPEGKAKIQLQLVLHAGDTTNFHFSNESTAVKERDAVKDLLQQLLPKFKRKAN
notes: p62 subunit of the general transcription/repair factor TFIIH, human, N-terminal pleckstrin homology (PH) domain, residues 1-108; Unlabeled, 15N-labeled or 13C/15N-labeled according to the experiment; Expressed from pET15b; a few vector residues may remain after thrombin cleavage (surmise); source: E. coli BL21 (DE3) Gold, purified (Ni-NTA, thrombin digestion, Superdex75)

Each binder was assayed against B1 (assay: ITC; 100∼300 μM RPB6/Rpb6 peptide in the syringe titrated into 10–30 μM p62 PH-D in the cell; 20 mM potassium phosphate (pH 6.8) with or without 25 mM NaCl, 20°C; VP-ITC). Conditions: both partners purified.

binding result | Binder
binds | MSDNEDNFDGDDFDDVEEDEGLDD (peptide, UniProt P61218 1-24, looked up, RPB6, human, N-terminal tail (NTT), residues 1-24; also called NTT peptide derived from human RPB6) [human RPB6 (residues 1–24), NTT peptide]
binds | MSDNEDNFDGDDADDVEEDEGLDD (peptide, UniProt P61218 1-24, looked up, RPB6, human, N-terminal tail, residues 1-24, with F13A) [human RPB6 (residues 1–24) F13A]
binds | MSDNEDNFDGDDFDDAEEDEGLDD (peptide, UniProt P61218 1-24, looked up, RPB6, human, N-terminal tail, residues 1-24, with V16A) [human RPB6 (residues 1–24) V16A]
binds | MSDNEDNADGDDFDDVEEDEGLDD (peptide, UniProt P61218 1-24, looked up, RPB6, human, N-terminal tail, residues 1-24, with F8A) [human RPB6 (residues 1–24) F8A]
binds | MSDNEDNFDGDDADDAEEDEGLDD (peptide, UniProt P61218 1-24, looked up, RPB6, human, N-terminal tail, residues 1-24, with F13A and V16A; also called F13A-V16A double mutation) [human RPB6 (residues 1–24) F13A-V16A]
binds | MADNEDNFDGDDFDDVEEDEGLDD (peptide, UniProt P61218 1-24, looked up, RPB6, human, N-terminal tail, residues 1-24, with Ser2 substituted to alanine; also called Ser2 alanine substitution) [human RPB6 (residues 1–24) S2A]

Each binder was assayed against human RPB6 (residues 1–127), full-length (human, UniProt P61218 1-127) (assay: NMR structure; complex at 0.38 mM, 13C/15N-labeled RPB6 with unlabeled p62 PH-D at 1.0:2.0 (and 13C/15N-labeled p62 PH-D with unlabeled RPB6); 20 mM potassium phosphate (pH 6.8), 25 mM NaCl, 5 mM deuterated DTT, 25°C; intermolecular NOEs). Conditions: both partners purified.

Binder | binding result
B1 | binds
